The values that follow come from the supplement of paper PMC10724198.

Data set [1] concerns Saccharomyces cerevisiae. The data set is described as follows: protein stability index of tFT-peptide fusion in wild type (PSI (0-1 scale)); higher = more stable (slower turnover). The note with it: genetic background: wild type. As to the method: (§1)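 MPS profiling in S. cerevisiae of two library types built from selected 12-aa C-degron peptides (IN1, IN2, LN1, LN3, VN2, R1-R5, W1-W3, Atg1 and Rpa12 C-termini): saturation mutagenesis libraries and C-terminal +1 capping libraries (13 aa). Each peptide is fused to the C-terminus of a sfGFP-mCherry timer, after a GGGS linker. Cells are FACS-sorted into 8 mCherry/sfGFP bins and sequenced. PSI runs from 0 (unstable) to 1 (stable), measured once in wild type and in the das1Δ or doa10Δ background.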

Data set [2] relates to Saccharomyces cerevisiae. The data set is described as follows: protein stability index of tFT-peptide fusion in deletion strain of DAS1 (PSI (0-1 scale)); higher = more stable (slower turnover). The procedure:
as §1

Data set [3] relates to Saccharomyces cerevisiae. The data set is described as follows: protein stability index of tFT-peptide fusion (C-terminal peptide) (PSI (0-1 scale)); higher = more stable (slower turnover). The conditions noted are these: temperature: 30 C. The procedure: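 MPS profiling in S. cerevisiae of the yeast C-terminome library: the last 12 aa of each annotated ORF are fused to the C-terminus of a sfGFP-mCherry timer, after a GGGS linker. Cells are FACS-sorted into 8 mCherry/sfGFP bins and deep-sequenced. PSI runs from 0 (unstable) to 1 (stable); wild type and das1Δ backgrounds, two technical replicates each.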

The mark [4] stands for this setting: genetic background: das1 deletion.

± gives the standard deviation of the averaged measurements.
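Wherever protein stability index of tFT-peptide fusion in deletion strain of DAS1 is given: PSI is a weighted mean of each variant's read distribution over the sorted stability bins, computed only for variants having over 10 reads in total.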
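Wherever protein stability index of tFT-peptide fusion in wild type is given: PSI derived as read-weighted mean over the 8 sorting bins, only variants exceeding 10 total reads kept, mCherry placed adjacent to the peptide and sfGFP distal.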

Turning to ADWRVGLWRGAS, the protein stability index came out at 0.519 in the data set with Saccharomyces cerevisiae [1] and 0.729 with Saccharomyces cerevisiae [2].
In the case of APWRVGLWRGAS, the protein stability index in the data set with Saccharomyces cerevisiae [1] worked out at 0.512; in the data set on Saccharomyces cerevisiae [2], 0.701.
Taken in the same sequence, the figures for ARERVGLWRGAS were 0.609 and 0.726.
The corresponding values for ARLRVGLWRGAS are 0.581 and 0.69.
As for ARNRVGLWRGAS, the protein stability index in the data set on Saccharomyces cerevisiae [1] stood at 0.606; with Saccharomyces cerevisiae [2], 0.693.
For the sequence ARWNVGLWRGAS, the protein stability index with Saccharomyces cerevisiae [1] was determined as 0.322; in the data set with Saccharomyces cerevisiae [2], 0.662.
The corresponding values for ARWRLGLWRGAS are 0.458 and 0.687.
Taken in the same sequence, the figures for ARWRMGLWRGAS were 0.605 and 0.689.
The corresponding values for ARWRVGLTRGAS are 0.664 and 0.679.
For ARWRVGLWAGAS, the values for the protein stability index with Saccharomyces cerevisiae [1] and with Saccharomyces cerevisiae [2] were 0.599 and 0.627, respectively.
In the case of ARWRVGLWGGAS, the protein stability index came out at 0.554 in the data set on Saccharomyces cerevisiae [1] and 0.674 in the data set on Saccharomyces cerevisiae [2].
Taken in the same sequence, the figures for ARWRVGLWIGAS were 0.367 and 0.572.
Taken in the same sequence, the figures for ARWRVGLWRGAD were 0.694 and 0.672.
Turning to ARWRVGLWRGAR, the protein stability index with Saccharomyces cerevisiae [1] is 0.663; in the data set with Saccharomyces cerevisiae [2], 0.666.
Taken in the same sequence, the figures for ARWRVGLWRGAY were 0.598 and 0.682.
Turning to ARWRVGLWRGHS, the protein stability index in the data set on Saccharomyces cerevisiae [1] was found to be 0.602; in the data set on Saccharomyces cerevisiae [2], 0.691.
Taken in the same sequence, the figures for ARWRVGLWRTAS were 0.0835 and 0.684.
With ARWRVGLWVGAS, the protein stability index in the data set on Saccharomyces cerevisiae [1] was determined as 0.468; in the data set with Saccharomyces cerevisiae [2], 0.545.
As for ARWRVGLYRGAS, the protein stability index in the data set on Saccharomyces cerevisiae [1] was 0.683; in the data set on Saccharomyces cerevisiae [2] it was 0.641.
Taken in the same sequence, the figures for ARWRVGTWRGAS were 0.535 and 0.687.
Turning to ARWRVKLWRGAS, the results for the protein stability index with Saccharomyces cerevisiae [1] and in the data set with Saccharomyces cerevisiae [2] were 0.357 and 0.684, respectively.
Turning to ARWRVLLWRGAS, the protein stability index with Saccharomyces cerevisiae [1] was 0.4; in the data set on Saccharomyces cerevisiae [2] it was 0.628.
For ASLAASFWRVVG, the protein stability index with Saccharomyces cerevisiae [1] is 0.135; in the data set on Saccharomyces cerevisiae [2], 0.695.
The corresponding values for ASWRVGLWRGAS are 0.516 and 0.703.
With AVVYLSCVACIN, the protein stability index in the data set on Saccharomyces cerevisiae [1] was determined as 0.0207; in the data set with Saccharomyces cerevisiae [2], 0.038.
The corresponding values for CKSCGYKFRTNN are 0.276 and 0.697.
The corresponding values for CTSCCYKFRTNN are 0.211 and 0.661.
The corresponding values for CTSCEYKFRTNN are 0.457 and 0.684.
Take CTSCGQKFRTNN: the protein stability index was determined as 0.448 in the data set on Saccharomyces cerevisiae [1] and 0.686 in the data set with Saccharomyces cerevisiae [2].
Regarding CTSCGYEFRTNN, the protein stability index with Saccharomyces cerevisiae [1] was determined as 0.64; in the data set on Saccharomyces cerevisiae [2] it was 0.675.
On to CTSCGYHFRTNN, for which the protein stability index worked out at 0.258 in the data set with Saccharomyces cerevisiae [1] and 0.695 in the data set with Saccharomyces cerevisiae [2].
The corresponding values for CTSCGYKFITNN are 0.325 and 0.709.
Turning to CTSCGYKFRGNN, the values for the protein stability index in the data set on Saccharomyces cerevisiae [1] and with Saccharomyces cerevisiae [2] were 0.682 and 0.686, respectively.
With CTSCGYKFRHNN, the protein stability index with Saccharomyces cerevisiae [1] is 0.555; in the data set on Saccharomyces cerevisiae [2], 0.705.
The corresponding values for CTSCGYKFRKNN are 0.23 and 0.692.
With CTSCGYKFRTNNI, the protein stability index was found to be 0.716 in the data set on Saccharomyces cerevisiae [1] and 0.699 with Saccharomyces cerevisiae [2].
The corresponding values for CTSCGYKFRTNNP are 0.698 and 0.69.
As for CTSCGYKFRTNNR, the results for the protein stability index in the data set on Saccharomyces cerevisiae [1] and in the data set with Saccharomyces cerevisiae [2] were 0.707 and 0.705, respectively.
Taken in the same sequence, the figures for CTSCGYKFRTNNY were 0.677 and 0.704.
On to CTSCGYKFRTPN, for which the protein stability index worked out at 0.689 in the data set on Saccharomyces cerevisiae [1] and 0.71 in the data set on Saccharomyces cerevisiae [2].
The corresponding values for CTSCGYKFRTRN are 0.534 and 0.683.
Taken in the same sequence, the figures for CTSCGYKFRVNN were 0.282 and 0.687.
With CTSCGYKFRWNN, the protein stability index in the data set on Saccharomyces cerevisiae [1] is 0.49; in the data set on Saccharomyces cerevisiae [2] it was 0.737.
As to CTSCGYKFRYNN, the protein stability index in the data set on Saccharomyces cerevisiae [1] was determined as 0.369; in the data set on Saccharomyces cerevisiae [2], 0.702.
The corresponding values for CTSCGYKFYTNN are 0.374 and 0.701.
The corresponding values for CTSCGYKHRTNN are 0.582 and 0.687.
Taken in the same sequence, the figures for CTSCGYKWRTNN were 0.153 and 0.659.
CTSCGYVFRTNN: the protein stability index in the data set with Saccharomyces cerevisiae [1] amounted to 0.196; in the data set on Saccharomyces cerevisiae [2], 0.698.
For CTSCNYKFRTNN, the figures for the protein stability index in the data set on Saccharomyces cerevisiae [1] and in the data set on Saccharomyces cerevisiae [2] were 0.407 and 0.681, respectively.
On to CTSCTYKFRTNN, for which the results for the protein stability index with Saccharomyces cerevisiae [1] and with Saccharomyces cerevisiae [2] were 0.238 and 0.648, respectively.
As to CTSVGYKFRTNN, the protein stability index with Saccharomyces cerevisiae [1] was found to be 0.176; in the data set with Saccharomyces cerevisiae [2] it was 0.682.
The corresponding values for CTVCGYKFRTNN are 0.28 and 0.704.
Turning to CVSCGYKFRTNN, the values for the protein stability index in the data set on Saccharomyces cerevisiae [1] and in the data set with Saccharomyces cerevisiae [2] were 0.243 and 0.705, respectively.
For the sequence CWSCGYKFRTNN, the figures for the protein stability index with Saccharomyces cerevisiae [1] and with Saccharomyces cerevisiae [2] were 0.167 and 0.714, respectively.
Turning to DSLAASFWRVVG, the protein stability index with Saccharomyces cerevisiae [1] turned out to be 0.135; in the data set on Saccharomyces cerevisiae [2], 0.697.
For ELIQPLPVQFLN, the protein stability index amounted to 0.0675 in the data set with Saccharomyces cerevisiae [1] and 0.612 with Saccharomyces cerevisiae [2].
On to EVVYLSCVACIN, for which the protein stability index turned out to be 0.0159 in the data set on Saccharomyces cerevisiae [1] and 0.0291 in the data set with Saccharomyces cerevisiae [2].
The corresponding values for FCMRWTFRYWVN are 0.0388 and 0.481.
Consider YRVARKPSQPVM [MTO1 C-terminal 12 aa], for which the protein stability index in the data set on Saccharomyces cerevisiae [3] (setting [4]) was 0.685 ± 0.012; in the data set on Saccharomyces cerevisiae [3] (genetic background: wild type) it was 0.683 ± 0.027.
The corresponding values for YVASHESQKADE [RRP5 C-terminal 12 aa] are 0.6883 ± 0.0054 and 0.741 ± 0.072.
Consider YVKNLLTRFFTR [FRT1 C-terminal 12 aa], for which the protein stability index amounted to 0.7184 ± 0.0033 in the data set on Saccharomyces cerevisiae [3] (setting [4]) and 0.732 ± 0.03 with Saccharomyces cerevisiae [3] (genetic background: wild type).
With YVVTSDEHPKTL [SIR2 C-terminal 12 aa], the protein stability index in the data set with Saccharomyces cerevisiae [3] (setting [4]) is 0.724 ± 0.0073; in the data set on Saccharomyces cerevisiae [3] (genetic background: wild type) it was 0.6955 ± 0.0043.
The corresponding values for YWILKSNPTNES [YNL092W C-terminal 12 aa] are 0.742 ± 0.018 and 0.7246 ± 0.0071.
Turning to YWRKQYPEVDLP [UIP3 C-terminal 12 aa], the figures for the protein stability index in the data set on Saccharomyces cerevisiae [3] (setting [4]) and in the data set on Saccharomyces cerevisiae [3] (genetic background: wild type) were 0.728 ± 0.018 and 0.744 ± 0.017, respectively.
The corresponding values for YYYYNKYKEFYP [TMH11 C-terminal 12 aa] are 0.736 ± 0.039 and 0.704 ± 0.029.
